From patent US20230265151A1, “GIP/GLP1 CO-AGONIST COMPOUNDS” (priority 2020, published 2023)
Residue numbers refer to the chain shown, from its start. *1 amine or outer side, *2 acyl side, *3 side chain or, on linkers, in order; H or OH if unused. Where no end group is shown, it is not given here. Side-chain parts run from the residue outwards. [ ]: non-standard residue; d: D form. The star is where a group is joined. αMePhe(2-F) = C[C@](N)(Cc1ccccc1F)C(=O)O; γGlu = O=C(O)[C@H](CCC(=O)[*:2])N[*:1]; C14 diacid = O=C(O)CCCCCCCCCCCCC(=O)*; αMeY = C[C@](N)(Cc1ccc(O)cc1)C(=O)O; αMeF = C[C@](N)(Cc1ccccc1)C(=O)O; αMeL = CC(C)C[C@](C)(N)C(=O)O; Orn = NCCC[C@H](N)C(=O)O; AEEA = NCCOCCOCC(=O)O; Aib = CC(C)(N)C(=O)O

T1: human GIP receptor (human, UniProt P48546 22-466)
T1 sequence (looked up): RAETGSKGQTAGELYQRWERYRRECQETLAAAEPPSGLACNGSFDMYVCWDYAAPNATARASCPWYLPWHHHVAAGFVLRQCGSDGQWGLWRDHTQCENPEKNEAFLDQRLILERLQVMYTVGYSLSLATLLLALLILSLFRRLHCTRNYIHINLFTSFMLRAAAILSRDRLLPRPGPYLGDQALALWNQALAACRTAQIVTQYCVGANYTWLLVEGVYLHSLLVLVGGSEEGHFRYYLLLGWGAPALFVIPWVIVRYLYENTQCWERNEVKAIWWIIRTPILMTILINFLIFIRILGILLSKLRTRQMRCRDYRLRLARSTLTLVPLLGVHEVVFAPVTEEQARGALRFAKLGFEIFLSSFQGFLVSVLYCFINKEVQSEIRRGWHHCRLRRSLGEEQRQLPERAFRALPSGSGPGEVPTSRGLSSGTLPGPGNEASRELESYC

B1: Example 104 (peptide)
peptide: YXEGTXTSDXSIXLDXKAQXEFIGXLIEGGKSSGAPPPS
modifications: Aib2, αMeF(2F)6, 4Pal10, αMeL13, Orn16, Aib20, αMeY25, K17 and K31: K(AEEA2-(γ-Glu)-CO-(CH2)12-CO2H), C-terminal NH2
B2: Example 79 (peptide)
peptide: B1 peptide with G24K, K31P
modifications: Aib2, αMeF(2F)6, 4Pal10, αMeL13, Orn16, Aib20, αMeY25, K17 and K24: K(AEEA-(γ-Glu)-CO-(CH2)12-CO2H), C-terminal NH2
B3: Example 78 (peptide)
peptide: B1 peptide with E21K, G24X, K31P
modifications: Aib2, αMeF(2F)6, 4Pal10, αMeL13, Orn16, Aib20, D-Glu24, αMeY25, K17 and K21: K(AEEA2-CO-(CH2)12-CO2H), C-terminal NH2
B4: Example 80 (peptide)
peptide: B1 peptide with G24K, K31P
modifications: Aib2, αMeF(2F)6, 4Pal10, αMeL13, Orn16, Aib20, αMeY25, K17 and K24: K(AEEA3-(γ-Glu)-CO-(CH2)12-CO2H), C-terminal NH2
B5: Example 98 (peptide)
peptide: B1 peptide with G24X
modifications: Aib2, αMeF(2F)6, ChA10, αMeL13, Orn16, Aib20, D-Glu24, αMeY25, K17 and K31: K(AEEA2-(γ-Glu)-CO-(CH2)12-CO2H), C-terminal NH2
B6: Example 101 (peptide)
peptide: B1 peptide with X16G, G24X
modifications: Aib2, αMeF(2F)6, 4Pal10, αMeL13, Aib20, D-Glu24, αMeY25, K17 and K31: K(AEEA2-(γ-Glu)-CO-(CH2)12-CO2H), C-terminal NH2
B7: Example 87 (peptide)
peptide: B1 peptide with G24X
modifications: Aib2, αMeF(2F)6, αMeF(2F)10, αMeL13, Orn16, Aib20, D-Glu24, αMeY25, K17 and K31: K(AEEA2-(γ-Glu)-CO-(CH2)12-CO2H), C-terminal NH2
B8: Example 5 (peptide)
peptide: B1 peptide with G24X
modifications: Aib2, αMeF(2F)6, 4Pal10, αMeL13, Orn16, Aib20, D-Glu24, αMeY25, K17 and K31: K(AEEA2-(γ-Glu)-CO-(CH2)10-CH3), C-terminal NH2
B9: Example 85 (peptide)
peptide: B1 peptide with F22X, G24K, X25Y, K31P
modifications: Aib2, αMeF(2F)6, 4Pal10, αMeL13, Orn16, Aib20, αMeF22, K17 and K24: K(AEEA2-(γ-Glu)-CO-(CH2)12-CO2H), C-terminal NH2
B10: Example 89 (peptide)
peptide: B1 peptide with S11X, G24X
modifications: Aib2, αMeF(2F)6, 4Pal10, Aib11, αMeL13, Orn16, Aib20, D-Glu24, αMeY25, K17 and K31: K(AEEA2-(γ-Glu)-CO-(CH2)12-CO2H), C-terminal NH2
B11: Example 71 (peptide)
peptide: B1 peptide with K17I, G24K
modifications: Aib2, αMeF(2F)6, 4Pal10, αMeL13, Orn16, Aib20, αMeY25, K24 and K31: K(AEEA2-(γ-Glu)-CO-(CH2)12-CO2H), C-terminal NH2
B12: Example 8 (peptide)
peptide: B1 peptide with G24X
modifications: Aib2, αMeF(2F)6, 4Pal10, αMeL13, Orn16, Aib20, D-Glu24, αMeY25, K17 and K31: K(AEEA2-(γ-Glu)-CO-(CH2)12-CH3), C-terminal NH2
B13: Example 9 (peptide)
peptide: B1 peptide with G24X
modifications: Aib2, αMeF(2F)6, 4Pal10, αMeL13, Orn16, Aib20, D-Glu24, αMeY25, K17 and K31: K(AEEA2-CO-(CH2)12-CO2H), C-terminal NH2
B14: Example 83 (peptide)
peptide: B1 peptide with G24K, K31P
modifications: Aib2, αMeF(2F)6, 4Pal10, αMeL13, Orn16, Aib20, αMeF25, K17 and K24: K(AEEA2-(γ-Glu)-CO-(CH2)12-CO2H), C-terminal NH2
B15: Example 93 (peptide)
peptide: Y[Aib]EGT[αMePhe(2-F)]TSDV[Aib]I[αMeL]LD[Orn]K([AEEA-AEEA-γGlu-C14 diacid])AQ[Aib]E[αMeF]I[dE][αMeY]LIEGGK([AEEA-AEEA-γGlu-C14 diacid])SSGAPPPS-NH2
B16: Example 73 (peptide)
peptide: YXEGTXTSDXSIXLDXIAQXKFIXXLIKGGPSSGAPPPS
modifications: Aib2, αMeF(2F)6, 4Pal10, αMeL13, Orn16, Aib20, D-Glu24, αMeY25, K21 and K28: K(AEEA2-(γ-Glu)-CO-(CH2)12-CO2H), C-terminal NH2
B17: Example 86 (peptide)
peptide: B16 peptide with I17Q, K21E, P31K
modifications: Aib2, αMeF(2F)6, 4Pal10, αMeL13, Orn16, Aib20, D-Glu24, αMeY25, K28 and K31: K(AEEA2-(γ-Glu)-CO-(CH2)12-CO2H), C-terminal NH2
B18: Example 74 (peptide)
peptide: B16 peptide with K28E, P31K
modifications: Aib2, αMeF(2F)6, 4Pal10, αMeL13, Orn16, Aib20, D-Glu24, αMeY25, K21 and K31: K(AEEA2-(γ-Glu)-CO-(CH2)12-CO2H), C-terminal NH2
B19: Example 105 (peptide)
peptide: B16 peptide with X10K, K28E
modifications: Aib2, αMeF(2F)6, αMeL13, Orn16, Aib20, D-Glu24, αMeY25, K10 and K21: K(AEEA2-(γ-Glu)-CO-(CH2)12-CO2H), C-terminal NH2

Molecular target: human glucagon receptor (human, UniProt P47871 26-477)
Assay: cell-based or functional assay

Binder | EC50, cAMP [nM]
B1 | > 9950
B2 | > 9950
B3 | > 9950
B4 | > 9950
B5 | > 9950
B6 | > 9950
B7 | > 9950
B8 | > 9150
B9 | > 9950
B10 | > 9950
B11 | > 9950
B12 | > 9950
B13 | > 9950
B14 | > 9950
B15 | > 9950
B16 | > 9950
B17 | > 9950
B18 | > 9950
B19 | > 9950

Molecular target: T1, human GIP receptor
Assay: cell-based or functional assay

Binder | EC50, cAMP [nM] | Emax, cAMP [%]
B1 | 0.0361 | 94.9
B2 | 0.013 | –
B3 | 0.0145 | –
B4 | 0.0245 | 92.4
B5 | 0.0148 | –
B6 | 0.0297 | 92.1
B7 | 0.029 | 84.7
B8 | 0.00585 | –
B9 | 0.0312 | 91.7
B10 | 0.0301 | 88.9
B11 | 0.0171 | 93.8
B12 | 0.00307 | –
B13 | 0.0102 | –
B14 | 0.0223 | 89.6
B15 | 0.0448 | 99.4
B16 | 0.0207 | 97.1
B17 | 0.0184 | 94.2
B18 | 0.0156 | 93.3
B19 | 0.0366 | –

Molecular target: human GLP-1 receptor (human, UniProt P43220 24-463)
Assay: cell-based or functional assay

Binder | EC50, cAMP [nM] | Emax, cAMP [%]
B1 | 0.417 | –
B2 | 0.223 | –
B3 | 0.286 | –
B4 | 0.718 | –
B5 | 0.227 | –
B6 | 2.94 | –
B7 | 1.34 | –
B8 | 0.057 | –
B9 | 7.69 | 95.3
B10 | 1.03 | –
B11 | 0.246 | –
B12 | 0.0157 | –
B13 | 0.421 | –
B14 | 0.451 | –
B15 | 0.575 | –
B16 | 0.437 | –
B17 | 0.359 | –
B18 | 0.334 | –
B19 | 0.52 | –
